Measurements as given in the NTF2 design screens of Basanta et al. (2020).

Assay: protease stability score; higher = more stable; yeast display proteolysis, trypsin and chymotrypsin;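 also: log10 excess protease needed over predicted unfolded state with 0 meaning unfolded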

| Sequence | protease stability score |
| --- | --- |
| DDDQLDRNATQMMEALQTGDEQTLNNLVDPDVRFHIGDKVVHGRDQWNEQVKKIRDRADRIHIKHVEAQGDKVRMEFVLNINGRNIRVRMEAEVHNGRFKVITFDPEQVKEMRK | 1.19 |
| DETQRAEEFFKRMQKLAHTNNFEHLANMADPNANFRVGDKTFHGRRDMIRQQKQIRERVDHVEYDVRRIDVHGNELDIKLEVNYDVNGKKDTRTVHYNAENNNGDVVISRVEYK | 0.127 |
| DKDAARRFNEMLQQIHTGNEQEVSKLVDEDADVKVGEKDVHGREQIHSEVKKMRDELSYRVQVNEFDDRGDKIRFNIRVRKNTNGKPKTSRNNLTVVVHNGRIKEVKAESDG | 0.095 |
| DEEDSKQMKQVLEAIRRGDEDHVRQQFDPNARIRVGDKEYHGMEEYASDLRSKRSKLDHKINLKTMSASNGRIDFVVQVQFTIDGQPVTDEVRATAVVHNGKIVSLSNEVDEERISEVEK | -0.705 |
| DEKKQQELAETFWKIFKTGDEEKLKQMMPQDVRARYGDKSVTGRDRIVTTIKKRVKRADHINVKHISVHNGKIHIDAVIVVDGRKQRDTINIKMRNGHIKNINVDPEKDKQNFS | -0.217 |
| DEDERAEKMARTAQEILETGDEEKAKRLFPPNARAKVGDRTYHGREDIVKHLKELWDRADHVRVEIKSFRVRGDNVHVVMTLVFTYNGKNETQQLTMIFVHVNGRQVAQDMKIG | 0.671 |
| DEDSQAHEIAQHFIELLKHNNEDDMKKYIDPNAKAQYGDKRVHGRNHVIRTFKEMRDKVDHISVEIKSIKANGEKISADMVVTFNVNGKNETVQYVLIFQVQGERVRVTHVKID | 0.796 |
| DERQRSRAEEFMKNYQTGNEQNLDKLFDKNAKVHVGDKVVHGREQIREQNRREKEHLRFKIRHMDVEVRNGHVSVQVRMEREHNGHPQTVSVQFRNEQHNGQIKRFEREEQQ | 0.258 |
| DHDALERFQEFLENLKSGNPHDLHNMLDKNASLQVGDKTVTGRDQIVDHWRRQREEWEVTYRSVDLKVSGDTVKADFDFQVDINGQPNRVSRQAHVKISNGKLKTLQYRVSEDVKRNIEG | -0.254 |
| DEDHMRTLIQRFIEAVQKGDEEQIKRLADPNARMRVGEREIHGREEIAKEIKDIRDQVDHINIRTWSFHNGEAHLEVEYNHNGQHRTMKLRIVVRNGKLQELEWRKG | 2.39 |
| DEDFWRRLVTLMQKNDFDQLARLVDPNAEVTVGDKTYEGRENIQKMWHKLKKQFDHYEIKTYRVKGDKLDMDYVFVVNGQQVRAKVEMRVHNGRLVELRFDARNPDELDTVRRILS | 1.55 |
| DDREEARKMLHKADRALNDGDPRSAQNLVDENAQVVYGDKRYSGDQQAADVMVSLRHQYDHLSLEIDRLRVDGNRVHVDATLTAQRNGSTLHSKLNFVFSKKNGRLRVSHLVIG | 0.183 |
| DERNLHVANEFWKVLTDGDPRRLMELVDPNAKIQYGDKTITGREEIRKKAEKDTKKSRFEVQVQDIRVTGDTANIHAVFNEDHNGQPSQDFYVVTMAMNGDKIRFMIQRKSK | 0.483 |
| DEHADTIVKKYLDAIKSNNPEDVKENVDKDVDVEVGDTSWHGRDEVVTRVQNELDEIRIDMKVDEVNNQGNHVEVKMHMTLDINGKPATVDWDVKFDIQNGRIQSIRLRPDEENRKQKEK | 0.057 |
| DEHSDERRLQTAMHALEQNDPDEIKRQMDKDASARYGEKDVTGRDNAKKAASDFKKKVDHVEIKHYDIQGDKLHAKAKVNINGQHIEIIMVLVAHNGHVQRLQVDHG | 0.227 |
| DKEEAQKVAEQMVKAIKNGNLDELADAGDDGVDYQVGDEKKRGREDIKRHVEKLQKAGVEMEVKEVRVEGNEVETKLTYKIGNTEVTVKVTVEVEGGKINRVEVRMSEEVEKTVRHG | -0.193 |
| DEDAARRMLEFLRQMEQGNEHELRHLADPNARMRVGDHTLHGMEDIAREQVERNRRLRFSNKVDRIKNDGDKVNLQIRFQIDVNGKPFTDVVSVNVHEHNGKIEFVEFRVPEEFREKVKR | 0.1 |
| DEEESDRLKELFRVMRTGDHKRAENMLDPNARFKVGDKKFEGRHEWQKDIKKTKEESHADIKIKDVHFDNGRVDVTLEMVVLHNGRPKKFRVKFVATIQGEKVKEAHITESQ | -0.094 |
| DEDMSRKAKKFWKAETDGNPQKLKTLIDPNARAHVGDQDLHGRRKIVHWLKHFRDTMRQHWTRYSFDAHGNKVDNRFVVVLQTNGKPERRRNKLTLVFKNGRLVSMRDETKG | 0.128 |
| DENENEEFARKFLENLRTGDPDKVMELVDPNAHVTIGDKEIKGRDQVKRWVEEHKRRADHLDVRDMSVDGEKITARIVVNINGENKYQKVEISIHNGHMTHMSVHDE | 1.12 |
| DEEKVKEIAKNFADAMRNGDPDQASKLLDPNAKIHVGEFNYKGREAANRMAKTMRDQFDHLDIKSIEVSGNSIKIEAQLHYNGQTIDIELFITVHNGHIESVTLHYRNEEDEEKLQS | 1.08 |
| DEEELKTAETNIRTGNFDDLSKQADENVNVQVGEKTIQGREEFNKVAHHLQKDVDHFEVKHVHNQGDQVNAEAVFVVDGKDLSFNMQMKMHNGRVKSVVFRATDETILRTYKEMLR | -0.152 |
| DEEKQDTWAKEFVKMLKQGNKTDARRLFDPNATLEYGDKRVHGREQAVEAQKQRSDKVDHMQVDSVSAHNGKMDIDLVLNVNGERKRQRVVANIHNGKIKYFSVQDS | -0.248 |
| DEDDQKNFSQMLNALDTGDEKRVVELADPNAKVEYGDKTYSGMEKYAHDRAKQRKEWRYHQTIDKVNVKNGRVEIHMKANFKINGQPRSMRFSVTVEAHNGKLKNLDFRFSEEDRKKLEG | -0.024 |
| DDSENRNFHQFVRDWTTGNPEKLAELADENARVNVGDKTVHGRDHIRTLFEKLIRRMDIELRDVKFQKSNGEISIKARMVLNENGRPKEFVMKNNAQAEGEKIKNFVLNDDS | 0.048 |

| Sequence | protease stability score |
| --- | --- |
| DEKKIKDLLLKLIEMYVSGNKEEVKKVGKDDVELHAGNQTYHGYEQMAKMAEKLKRYGVKLQITDAKVEGDKLTAKVDFHYGGETQKLEFVVQADGGKVDRMKIELSEEVVKVARKG | 0.377 |
| DREEKVREALETLQKAFRTGDPRLFVEQLDPNVRIEVGDKTVHGREQASEWAKRMRDKFDHFEVKIHDMSVQGDKFSVKVSLRQDVNGTDVQRDNHYTIVFHNGRVHVQNINNK | 0.644 |
| DEDEQRKIDETMHRLMEENNFDQLARTADENVRIVIGDKTYRGREQAVSAFRKLREHVDHADVKSVEIRNGRVLIKARLSFNGRTADVVFTFQFTNGRIQWAEVDPHAVRNARE | 1.06 |
| DEHVQQALERYWDAVTTNNPEQAVNNVDPNVEIVVGDKTLTGREDVHKHIKDVKDKQNVEIKSMQLRVHNGRVRARFKFEVNHNGEPTTDVVVVEAEVKNGKIQRVEARRDK | 0.899 |
| DDDKRKQFEDYMRKFKTGNEEDLVRNMDKDVDVHIGDKTWDGREEAAHELAQHRRHARIEYKSLSVDDKGDKLQVKMQYVDEHNGTPRDSHVVATLRLKNGKIRMIDVKRDG | -0.17 |
| DEKKALTLAKKAFEVIKKGDKEKAKKLGKPDVKYEYLDKKYTGPEAMEHIVEYVQKLGMEVRVKRNEEKGGTVRVDFDYQRGDQQVRTTAEVEYEGDKLKRFRVEMSEEVKKHITQG | 0.093 |
| DHKEETKKKDEARRVLETNDPRKKLKLMDPNARANVGDKRYHGREELKRRADEERKRVDHAEVKRVEANGDHIIVDFVFVVNGKTKRNSLNINMHNGRVKEVNVESR | -0.143 |
| DEEDQHVAKEFFSAMLTNDTDKLRRLADPNVRAHIGDKVIHGKEQFVRHVHELVEHQRVQVDRMDLDVDGERVRVEMRHVNEENGQPNDRKAKNSMDIHNGEIKYVTIKTQS | -0.437 |
| DEQRYRELMETAFHLVISGDEDTLDQIGKPNMEYHYVDRTLHGKDVLRVLVKIVKRVGAEARVEEAEVNGDTARAKFQYRKGDNTVQTDAEVKYEGDQIKKARVRLNDEVRKVLKDG | 0.174 |
| DEEDRRKAKEAAERNDWKHFSDQMDEDVRVLVGDKRFHGREEAKQFVQKVEDRADTQSVDSVDVQGNQVDLDMKLNINGNDVRAQFEFYFHNGRIKEIKVTFTDPREERQFKELIK | 1.25 |
| DERDLEEVNRLVKHGNWHEFVKNADKNVRARVGDKRVHGREHFKSLAENWRRRIDHQSIKFVDVQGERAVVTMKMNVNGKTVEVMFSFVVSNGHIKEYEMRARNDDDETRLQEVRS | 0.478 |
| DEETLHDVLRHLKHGDPDTIDRMADENAKAVIGNQEIHGREEISKIAKDLERKVDHQEVHKVEIDGDKATVTYRQNVNGRTVYMYVIVQNHDGHIKYVVIKARDEDEMRKWEENLS | 0.742 |
| DEDFMNKFEELLRNQQTGDPQFVADQADPNARWNVGDKQLHGRHQIRHQAKTESDQMEVQIDRMDVKVQNGHIDARINRQSNENGRPSRNELDQTVHYHNGKLKQLDESTSH | -0.44 |
| DEETIKHLVKVLEDGDKKRFQKLADPNVRMRVGDKQVHGREKAATLWQHFMDSVDHFFIDHVHIDGEKAHIRADLVVNGQRDTVSIDIKVHNGRIKDVVLRFRDPDYKRKVEKVLG | 1.56 |
| DEKKVKELIDQVVEAIQKGDVEHLLKLGKPDVTFTVGDVEIRGLEHLKKYYKQVKDDGAELHVKKVEVKGNTAQVHYDMKYGGTKATVTVNIEAKDHKVDRAEAKMDKDYLKYVRDG | 0.644 |
| DHEARKVVKRFWEAWETGDPEELNKQVDPNVHVQIGDTRLKGRDDVVRHLLEERHEMRVDLDSMDVKATNGQVNARATARADVNGQPVTFSMEFRFKVRNGKITHIDWQFSDEDHRKRKG | 0.81 |
| DRKAKEFAETLYDIFQRGNFENFLELIDKNVTVDVGDRTLHGRQAHEFAKEFQKEQLKVEVDDWHVDNQGEKVRITMTFVLHVNGRPQKQRQEQRFHLHNGRIKSLQVKTDE | -0.156 |
| DEKQKKDLLKQAVEMYLSGNSEEVRKLLKDDGEVEAGDQTYKGVEQVMKVVEQFKRYGVKLQMTDLKVDGDTVKVKAKLQNGGKTWEFEVTAQADGGKVDKITFKYSEEAKEDIEKG | -0.056 |
| DEEDDARKAAEALKAFFKGDPEKFRDLADEDVQVRIGDNVYTGRTEANEAVENFKRQVDHVEFKDLNNRGNKVFADVVVRFNGEDIRVTLYAEVHNGKLKYMQVDPTAQKQLEK | 0.65 |
| DEHKIATKQMEEFTEAMKRGDEDRMKSNADENVRIEVGDKEVHGQNQFKQTVANILKRVDHIRIKLRDWRNHNGRVDLVYQVNFDHNGRHKNDKYTVRMRIQGDKAKIEHVKAP | 0.349 |
| DHTKEARQVRRFVHALETGDPDRAASQLDKNAKVTVGDKRVHGRENVRTLMQEFIREADHFRLRDMRDDGEKFNLLIEFEVNGKRLRMHIDIVISNGTMKVVRFDPNVVKRMEN | 0.144 |
| DERKEAKEFADRIVKIIQTNNQDELEKNADPDVRVDVGDKQVHGREQLQDELKKLRTRADHVEVKIQDFKVHNGSVTVQMTIVYVVNGQKHKDERVYHAEIHNGRVKLKSARQK | 0.767 |
| DEEREKEFATRIATALRTNDPKKMVKNFDENAKFDVGDNRIKGREELKEWVDELHKEFDHIEIHDVQAHNGRAKINLKLEHNGRDTVLDATVVVENGRAKSAKQDQS | -0.448 |
| DEEAEKVYRKMLHALRTGNEHQLKKLMDPNVHVKVGDKHIHGREDVAQEQRTDRQRWRNDQQLVTFHAEGDQVEFTVEYVIEVNGQPDKDRYKAFFRFDNGKIKEFQVDIDPKELKEQLN | 0.096 |
| DDHALERLRSLNHIEDDGNEEKVEEMLDPNATVEVGDKRYHGSHHYVDHVRQRKEKQRYSQQFKHFHREPGRIVVHATAKFQVNGKPFKYTLTQVARLSNGKFTDIKVDVPERLKEQRQQ | -0.258 |
